Experimental data from the supplement of paper PMC9112550, “Optimization of the antimicrobial peptide Bac7 by deep mutational scanning” (BMC Biology, 2022).

Tested on: Escherichia coli TOP10
Assay: shrunken log2 fold change of peptide-encoding DNA abundance (4.5 h post-induction vs induction); higher = less antimicrobial activity (less host growth inhibition)
Details: time post-induction: 4.5 h; library: site-saturation at positions 5, 18, 19, 20
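Further: peptides expressed intracellularly from a pBAD plasmid library in pooled LB shake-flask culture, induced with 0.3% L-arabinose, DNA abundance read by NGS, three biological replicates, DESeq2 with apeglm shrinkage.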

In order of falling “shrunken log2 fold change” value:
1. RRIRGRPPRLPRPRPRPETAPRP  1.76
2. RRIRWRPPRLPRPRPRPMRKPRP  1.4
3. RRIRMRPPRLPRPRPRPGCRPRP  1.22
4. RRIRSRPPRLPRPRPRPPKEPRP  1.07
5. RRIRMRPPRLPRPRPRPKKDPRP  0.942
6. RRIRWRPPRLPRPRPRPTAIPRP  0.806
7. RRIRKRPPRLPRPRPRPRGWPRP  0.792
8. RRIRVRPPRLPRPRPRPAEAPRP  0.729
9. RRIRKRPPRLPRPRPRPGGAPRP  0.729
10. RRIRDRPPRLPRPRPRPGRGPRP  0.725
11. RRIRTRPPRLPRPRPRPPWAPRP  0.613
12. RRIRLRPPRLPRPRPRPTHQPRP  0.592
13. RRIRGRPPRLPRPRPRPPNTPRP  0.516
14. RRIRCRPPRLPRPRPRPGFRPRP  0.498
15. RRIRARPPRLPRPRPRPSARPRP  0.479
16. RRIRMRPPRLPRPRPRPGSKPRP  0.479
17. RRIRNRPPRLPRPRPRPEVDPRP  0.478
18. RRIRGRPPRLPRPRPRPLLYPRP  0.473
19. RRIRARPPRLPRPRPRPPTVPRP  0.468
20. RRIRERPPRLPRPRPRPRKAPRP  0.444
21. RRIRWRPPRLPRPRPRPGDAPRP  0.418
22. RRIRARPPRLPRPRPRPQENPRP  0.394
23. RRIRRRPPRLPRPRPRPTKAPRP  0.372
24. RRIRTRPPRLPRPRPRPKFCPRP  0.365
25. RRIRARPPRLPRPRPRPSTTPRP  0.363
26. RRIRRRPPRLPRPRPRPIFAPRP  0.355
27. RRIRGRPPRLPRPRPRPGIPPRP  0.351
28. RRIRGRPPRLPRPRPRPQINPRP  0.324
29. RRIRARPPRLPRPRPRPKNAPRP  0.323
30. RRIRMRPPRLPRPRPRPSHAPRP  0.282
31. RRIRPRPPRLPRPRPRPTDWPRP  0.257
32. RRIRRRPPRLPRPRPRPEFNPRP  0.25
33. RRIRHRPPRLPRPRPRPPWLPRP  0.242
34. RRIRHRPPRLPRPRPRPTPIPRP  0.226
35. RRIRGRPPRLPRPRPRPANKPRP  0.209
36. RRIRTRPPRLPRPRPRPFCSPRP  0.207
37. RRIRARPPRLPRPRPRPVWSPRP  0.197
38. RRIRWRPPRLPRPRPRPNCGPRP  0.192
39. RRIRTRPPRLPRPRPRPAEDPRP  0.17
40. RRIRERPPRLPRPRPRPLAEPRP  0.17
41. RRIRTRPPRLPRPRPRPVPGPRP  0.151
42. RRIRDRPPRLPRPRPRPSFMPRP  0.147
43. RRIRQRPPRLPRPRPRPGSGPRP  0.135
44. RRIRQRPPRLPRPRPRPLTDPRP  0.132
45. RRIRYRPPRLPRPRPRPTWDPRP  0.114
46. RRIRVRPPRLPRPRPRPDEKPRP  0.11
47. RRIRIRPPRLPRPRPRPVDPPRP  0.106
48. RRIRHRPPRLPRPRPRPVMEPRP  0.105
49. RRIRMRPPRLPRPRPRPPYFPRP  0.104
50. RRIRQRPPRLPRPRPRPVCTPRP  0.0864
51. RRIRERPPRLPRPRPRPLAKPRP  0.0848
52. RRIRFRPPRLPRPRPRPDGPPRP  0.0689
53. RRIRTRPPRLPRPRPRPSWPPRP  0.0669
54. RRIRWRPPRLPRPRPRPVFKPRP  0.0598
55. RRIRSRPPRLPRPRPRPHAQPRP  0.0587
56. RRIRHRPPRLPRPRPRPPAEPRP  0.0536
57. RRIRIRPPRLPRPRPRPPLDPRP  0.0528
58. RRIRKRPPRLPRPRPRPNQCPRP  0.0387
59. RRIRWRPPRLPRPRPRPKGSPRP  0.0359
60. RRIRFRPPRLPRPRPRPYHVPRP  0.0272
61. RRIRNRPPRLPRPRPRPGDNPRP  0.0229
62. RRIRMRPPRLPRPRPRPCPVPRP  0.0171
63. RRIRDRPPRLPRPRPRPEAHPRP  -0.00146
64. RRIRKRPPRLPRPRPRPRMIPRP  -0.00692
65. RRIRQRPPRLPRPRPRPYMGPRP  -0.00992
66. RRIRLRPPRLPRPRPRPGNQPRP  -0.0104
67. RRIRSRPPRLPRPRPRPAFLPRP  -0.0125
68. RRIRARPPRLPRPRPRPNTNPRP  -0.0214
69. RRIRYRPPRLPRPRPRPDLSPRP  -0.025
70. RRIRIRPPRLPRPRPRPPKVPRP  -0.0254
71. RRIRVRPPRLPRPRPRPNQTPRP  -0.0286
72. RRIRPRPPRLPRPRPRPLDKPRP  -0.0324
73. RRIRTRPPRLPRPRPRPQEYPRP  -0.0331
74. RRIRMRPPRLPRPRPRPIMVPRP  -0.0355
75. RRIRSRPPRLPRPRPRPCISPRP  -0.0391
76. RRIRLRPPRLPRPRPRPLHPPRP  -0.0561
77. RRIRVRPPRLPRPRPRPQMEPRP  -0.0589
78. RRIRHRPPRLPRPRPRPHVFPRP  -0.0684
79. RRIRDRPPRLPRPRPRPIEPPRP  -0.0685
80. RRIRERPPRLPRPRPRPISYPRP  -0.0746
81. RRIRSRPPRLPRPRPRPDHPPRP  -0.0828
82. RRIRCRPPRLPRPRPRPDIEPRP  -0.0833
83. RRIRRRPPRLPRPRPRPDYTPRP  -0.0883
84. RRIRMRPPRLPRPRPRPAYMPRP  -0.0929
85. RRIRQRPPRLPRPRPRPTLLPRP  -0.0944
86. RRIRKRPPRLPRPRPRPKQEPRP  -0.104
87. RRIRERPPRLPRPRPRPFYDPRP  -0.106
88. RRIRPRPPRLPRPRPRPMSMPRP  -0.11
89. RRIRNRPPRLPRPRPRPYRIPRP  -0.115
90. RRIRKRPPRLPRPRPRPFSCPRP  -0.122
91. RRIRYRPPRLPRPRPRPFWQPRP  -0.122
92. RRIRTRPPRLPRPRPRPHELPRP  -0.125
93. RRIRFRPPRLPRPRPRPCPPPRP  -0.131
94. RRIRIRPPRLPRPRPRPPDHPRP  -0.134
95. RRIRDRPPRLPRPRPRPQFCPRP  -0.137
96. RRIRTRPPRLPRPRPRPKSDPRP  -0.146
97. RRIRDRPPRLPRPRPRPDHEPRP  -0.148
98. RRIRPRPPRLPRPRPRPPINPRP  -0.158
99. RRIRNRPPRLPRPRPRPVCFPRP  -0.162
100. RRIRPRPPRLPRPRPRPMLNPRP  -0.164
101. RRIRSRPPRLPRPRPRPDCMPRP  -0.165
102. RRIRQRPPRLPRPRPRPVHTPRP  -0.168
103. RRIRQRPPRLPRPRPRPYQFPRP  -0.168
104. RRIRLRPPRLPRPRPRPAKMPRP  -0.169
105. RRIRQRPPRLPRPRPRPYHHPRP  -0.186
106. RRIRHRPPRLPRPRPRPQEIPRP  -0.19
107. RRIRIRPPRLPRPRPRPELHPRP  -0.2
108. RRIRQRPPRLPRPRPRPCSEPRP  -0.201
109. RRIRFRPPRLPRPRPRPLSIPRP  -0.203
110. RRIRHRPPRLPRPRPRPMDEPRP  -0.204
111. RRIRSRPPRLPRPRPRPRWMPRP  -0.206
112. RRIRSRPPRLPRPRPRPQCLPRP  -0.208
113. RRIRNRPPRLPRPRPRPYLGPRP  -0.21
114. RRIRGRPPRLPRPRPRPVVTPRP  -0.216
115. RRIRTRPPRLPRPRPRPSCRPRP  -0.219
116. RRIRHRPPRLPRPRPRPSLDPRP  -0.22
117. RRIRPRPPRLPRPRPRPFPGPRP  -0.226
118. RRIRIRPPRLPRPRPRPNCPPRP  -0.231
119. RRIRWRPPRLPRPRPRPWCKPRP  -0.239
120. RRIRMRPPRLPRPRPRPQMVPRP  -0.243
121. RRIRTRPPRLPRPRPRPQCIPRP  -0.247
122. RRIRVRPPRLPRPRPRPMIEPRP  -0.255
123. RRIRERPPRLPRPRPRPSPSPRP  -0.269
124. RRIRDRPPRLPRPRPRPSWTPRP  -0.274
125. RRIRNRPPRLPRPRPRPTTCPRP  -0.275
126. RRIRTRPPRLPRPRPRPIQMPRP  -0.286
127. RRIRCRPPRLPRPRPRPDSYPRP  -0.286
128. RRIRVRPPRLPRPRPRPSGTPRP  -0.298
129. RRIRVRPPRLPRPRPRPYAAPRP  -0.3
130. RRIRSRPPRLPRPRPRPCKFPRP  -0.301
131. RRIRRRPPRLPRPRPRPGKYPRP  -0.307
132. RRIRYRPPRLPRPRPRPAKMPRP  -0.329
133. RRIRTRPPRLPRPRPRPKCFPRP  -0.384
134. RRIRHRPPRLPRPRPRPWCVPRP  -0.386
135. RRIRVRPPRLPRPRPRPNYGPRP  -0.387
136. RRIRFRPPRLPRPRPRPQCDPRP  -0.388
137. RRIRCRPPRLPRPRPRPIIAPRP  -0.494
138. RRIRERPPRLPRPRPRPDHKPRP  -0.501
139. RRIRQRPPRLPRPRPRPSMLPRP  -0.522
140. RRIRFRPPRLPRPRPRPYAIPRP  -0.536
141. RRIRCRPPRLPRPRPRPSSLPRP  -0.555
142. RRIRFRPPRLPRPRPRPCIVPRP  -0.637
143. RRIRFRPPRLPRPRPRPWIYPRP  -0.662
144. RRIRNRPPRLPRPRPRPMFHPRP  -0.678
145. RRIRIRPPRLPRPRPRPSDEPRP  -0.698
146. RRIRYRPPRLPRPRPRPYFPPRP  -0.702
147. RRIRYRPPRLPRPRPRPTMTPRP  -0.859
148. RRIRSRPPRLPRPRPRPYFQPRP  -0.951
149. RRIRKRPPRLPRPRPRPPNIPRP  -1.03
150. RRIRIRPPRLPRPRPRPQYYPRP  -1.28
